Data published in the supplement of paper PMC12042874.
± gives the uncertainty stated by the source.

Assay: amyloid nucleation score (Sup35N fusion, yeast selection) (log enrichment); library NNK3; higher = more nucleation; inactive = no reads after selection
Summary of the method: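 For the nucleation score, DiMSum gave the log enrichment of output over input reads, centred on the mode score of non-aggregating sequences. Psi-negative yeast expressing Sup35N fused to peptides of 20 random codons were induced with 100 μM copper sulfate for 24 hours and grown 7 days at 30°C on medium lacking adenine and uracil. Input and output plasmid inserts were Illumina-sequenced, and sequences with under 100 input reads were excluded.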

Substance | amyloid nucleation score
VKCVYERRDGRLWLMILAMG | -0.481 ± 0.52
RLVCCKSHPFDVRYF | inactive
NTFVPVLVFGFYYVLIMISN | inactive
KQLHLMLIVQIVATKTVNAP | inactive
KPTWQKEFVR | 0.969 ± 0.19
IDRFHYSLTTDT | inactive
QSSIVWCVSFIKSRCDFSIC | inactive
NVIISQA | inactive
SGWLA | inactive
FFLRSGCTIWTNSK | inactive
YTYECRCH | inactive
MAEPTL | inactive
VLYVIRNYSGDG | 1.62 ± 0.096
CYWKLYCGNEYYGVSFMGVL | inactive
YPSGVYKFFAASATCWIM | inactive
VSFMFFACDTFFSHAVIRTR | inactive
ARLSEAVLGNVSDIGRVCNL | inactive
EIGSHIGDVQHRVFYNVTLV | inactive
GVLEAFLTDIIPMYGYVRVA | inactive
LHGHLGWWNVLDCPICLNFI | inactive
FVDLSSIDYVF | inactive
MLSGWFGLMIGCTAVVWSDS | inactive
PLSMSHVGAGLKF | inactive
GLTTSYQPYILYIL | inactive

Substance | amyloid nucleation score
NSCLRLSSHRMMFLAIAVTC | inactive
CRPRLVLSFGQIVY | inactive
WVSSFTVAWKGGKQRVITVE | inactive
EYRLVKFHSPLFQRIKSIVA | inactive
WLVGICWNWRWHLAVAGVVG | inactive
VSLILFGRIFFHL | inactive
HVLKDARCDS | 0.181 ± 0.36
ICEQKEFPYVEQWLD | inactive
SGSWVNDSESAEDLT | inactive
YLKVADVSLHLSHDLTYLLM | inactive
RTGEFMRGLMVGDSVKWVF | inactive
TDFIIRKSYQLLEFYFY | inactive
VNVNSKYNVFLLMCRGVEVI | inactive
LSINLASSSGVSVLLKGSNL | 0.87 ± 0.24
LCLFLSQMFSNRYEIFPLFV | inactive
LRGGKVMITRFVSCSI | inactive
TISDFISEEIRDLQGPVVCI | inactive
TTGMRYCLVFDIGFSFWLFM | inactive
AQFGQTWFANFTSVFYCWSE | 2.06 ± 0.064
LRTFKITFRGTVKTRRSLTN | 0.466 ± 0.63
VYMGTVWCSRAI | inactive
ILAVAPVVPGVVLGRNCRAR | inactive
DFDLLSFIRSDVIPCVCSKG | inactive
AYKMTFWVQNYVFVYSFLFV | 0.419 ± 0.23

Substance | amyloid nucleation score
RIPSGFTL | inactive
AMCALVSIRP | inactive
FLSYLSSIPAPYLNGSAGTT | inactive
FYGHQVNISGDNGVRTRPEV | inactive
TMFIVNTNIWSGVCISDNTW | 1.78 ± 0.067
MLAHGFCQVSEWSRALFLRV | -0.244 ± 1.5
VSRKRQLWEKCGTFVQRASM | inactive
VTRPVVSQ | inactive
FTSYRSEPTIYALLCLGLSL | 2.08 ± 0.093
KPPGLNRHYTSCDMLSWALN | inactive
RPSSQVYGRWEIYIKYL | inactive
CVTFFVISTHPHSCSLSN | 2.42 ± 0.083
RLSLFRGKCRVYYYTGSIQV | inactive
VMFLFGYNKVFKLSICWIGS | inactive
GRPICNYCRYVVVSVSMRRQ | inactive
SCKGNVFVSSGWEFGAYFTG | 0.751 ± 0.23
LFEDKCGNPWRNY | -0.126 ± 0.88
RWCFCWICHYLDVLCHYCLH | inactive
GSLCLSGKKIVFLHMNEAMG | inactive
SEALCWIVTSVCRLRVFLV | inactive
MLEYRVTARDGVLWEMGFGY | inactive
LSNHCARVF | inactive
YRPYC | inactive
SRRSMHRVVSHVREGS | -0.164 ± 0.96

Substance | amyloid nucleation score
CSSSRVWVHKHYGTYRHFIL | inactive
CVNMLRKTVIYFLHFPAYYR | inactive
GSCWLDVCQDCKSFSILS | inactive
RVHFALYSV | 1.65 ± 0.062
RGCKKLYRIKANVMYVSTVN | inactive
HSRTYFQSISGWISCLMSTL | 1.13 ± 0.11
VSVDWGLPRFGYTYKIL | inactive
FNPCRGCYETKFHVYRLSRL | 0.584 ± 0.28
HRDYFFRPTFL | inactive
SQYHQASNAMWVLFSGI | inactive
FTFWWDRLQNWKHIGFFGKV | 1.06 ± 0.12
LSSTV | inactive
MQSNCTVMTNPNDKRMAAWW | inactive
GDVIMCFNFRTFLSTITPGS | 1.96 ± 0.092
RTIHVGWVMAIIGTALRCCM | inactive
MKSKKPNSLDENYGSMRHF | inactive
FGTCLNLYL | 1.3 ± 0.11
DYGSFMYSLTSCMVNYWYMA | inactive
RQHMDGVVDI | inactive
TANLGRCYCKLSNFTSGWFL | inactive
LHASMLLLRNNRSRS | inactive
SIIGKNYKFRATSINKGISM | inactive
LNLGHDGYPNTSARVFHFC | inactive
YRAYYSYSFRW | inactive

Substance | amyloid nucleation score
NFVDVRIKFTLTADLGHNSG | 0.756 ± 0.21
AYRRKLISGFIWERFLFRCG | inactive
TYPRLNVHLLPLDFILYPH | inactive
LVTSNNMSAGRYNMCLRVLS | inactive
SFDILTAVVT | inactive
LCEKYFLRRFYFMTTGLSGR | inactive
QVLLCNAPFRQLYVACFYCF | 0.422 ± 0.38
SLAMTFYSGIGFYCFSCFFN | 2.36 ± 0.059
ITALDWY | inactive
MSEVPGMNDTWRVCIMDQGK | inactive
YTLRCDFLRNTA | inactive
LRVMSI | -0.964 ± 2.5
ELFILHSGGGWCSGI | 0.926 ± 0.16
MKWNPLDQTKL | inactive
MNRNVTSRVRTPPVCVRVRF | inactive
MIVVHEFLKGYVFSYRLYNL | inactive
RQLMIDAQSVYKCCGQPW | inactive
PSLQRSQRVSEFRTM | inactive
YSTFLFQGYLFLEPEYSGCR | inactive
MSPPCFNRMSYIMLPWFVML | inactive
RLVYPSVSSLKPIRSCWLG | inactive
